In experiment [1] the target is T1, FOLR1-mycHis (human, UniProt P15328 25-233).
T1 construct: Secreted from CHO/DG44 cells, purified on Ni-NTA; Residues 1-233 include the native signal peptide; also called non-reducing FOLR1-mycHis; recombinant protein having myc and His tag at the C-terminus of FOLR1 (1-233 amino acids); not shown: myc and His tag at the C-terminus
Put plainly: SPR as in Example 29, antibody captured, FOLR1-mycHis as analyte. Here is the method: (§1) The affinities of ChRA15-7Acc antibody and MORAb-003 antibody for FOLR1 were measured by a surface plasmon resonance method. The measurement was carried out in the same manner as in Example 16, except that a Human Antibody Capture Kit (GE Healthcare) was immobilized onto the CM5 chip by amine coupling and FOLR1-mycHis prepared by five-step dilution (12.3, 37, 111, 333, 1000 ng/mL) was applied as an analyte.
(§2) Affinities of HV7LV3-CDRH3-Cys101 modified antibodies for FOLR1 were measured by the surface plasmon resonance method in the same manner as in Example 29.

The target in experiment [2] is T1, FOLR1-mycHis. Put plainly: SPR (Biacore), antibody captured by Human Antibody Capture Kit on a CM5 chip, FOLR1-mycHis as analyte (12.3-1000 ng/mL, as in Example 29); affinity relative to ChRA15-7Acc = 100. Here is the method: as §1, §2
For orientation: SPR reads the build-up and loss of mass on a sensor chip optically.

For experiment [3], the target named is T1, FOLR1-mycHis. Put plainly: surface plasmon resonance as in Example 29. As for the experimental part: as §1, §2
The target of experiment [4] is T2, cynomolgus monkey FOLR1-Fc (cynomolgus monkey; human).
T2 construct: Expressed in CHO/Ms704 cells; also called CyFOLR1-Fc; not shown: Human IgG1 Fc (Hinge region and CH2-CH3 region) from pKANTEX93, added to the C-terminus
Put plainly: ELISA, antigen coated at 2 ug/mL, antibody 1.4-1000 ng/mL, goat anti-human kappa-HRP, ABTS, absorbance at 415 nm [c]. Here is the method: First, each 50 μL/well of FOLR1-Fc, FOLR2-Fc, FOLR3-Fc, and cynomolgus monkey FOLR1-Fc which were prepared at a concentration of 2 μg/mL using PBS was added in a 96-well plate for ELISA and incubated at 4° C. overnight. It was washed with PBS, and then 200 μL/well of 1% BSA/PBS wad added at room temperature for 1 hour for blocking. It was washed with PBS again, and each 50 μL/well of HuRA15-7CTDF antibody, ChRA15-7DF antibody, MORAb-003DF antibody, and defucosylated anti-DNP human IgG1 (DNPDF) antibody as a negative control which were prepared by seven-step dilution (1.4, 4.1, 12, 37, 111, 333, 1000 ng/mL) in 1% BSA/PBS was added, and allowed to react at room temperature for 1 hour.
Each well was washed with 0.05% tween20/PBS, and then 50 μL/well of Goat anti-Human kappa-HRP (Southern Biotech) which was diluted 2000-fold using 1% BSA/PBS was added and allowed to react at room temperature for 1 hour. Each well was washed with PBS, and then 50 μL/well of ABTS substrate solution was added, and allowed to react at room temperature. After sufficient color development was confirmed, 5% SDS solution was added to terminate the reaction, and absorbance at 415 nm was measured.
Background: An ELISA detects its analyte on a solid surface through an enzyme-linked reagent.

Experiment [5] concerns the target T1, FOLR1-mycHis. The experiment can be described thus: SPR (Biacore T100), antibody captured with Human Antibody Capture Kit, FOLR1-mycHis as analyte, 1:1 binding model. Here is the method: The affinity was analyzed from association constant (Ka) and dissociation constant (Kd) by Single-cycle kinetics. Kinetic constants (ka, kd, KD) were calculated by 1:1 binding model using a Biacore T-100 Evaluation software (GE Healthcare).
as §1

The source of these data is US20160060340A1 (Kyowa Kirin, published 2016).

Bounds are passed on as bounds.

In general, Kd refers to the constant that tells how readily two partners part at equilibrium. The koff is the first-order rate constant of dissociation.

T1 sequence (P15328 25-233): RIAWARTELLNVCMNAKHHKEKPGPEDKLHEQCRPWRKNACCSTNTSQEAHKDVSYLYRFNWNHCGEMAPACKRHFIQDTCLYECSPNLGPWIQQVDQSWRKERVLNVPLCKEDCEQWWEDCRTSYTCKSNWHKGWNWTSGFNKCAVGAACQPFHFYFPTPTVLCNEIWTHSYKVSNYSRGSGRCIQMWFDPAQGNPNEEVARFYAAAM
T2 sequence (chain, as listed by the source): as the sequence (P15328 25-233) above, with I2T, W4R, R37K, A146P, H171Y counted along it

B1: modified humanized RA15-7 antibody HV10LV2 (antibody, human IgG1, V domains shown)
VH: EVQLVESGGGLVQPGGSMRLSCAASGFTFTDFYMNWIRQPAGKAPEWLGFIRNKANGYTTEFNPSVKGRFTISRDNSKNSLYLQMNSLKTEDTATYYCARCLYGYAYYYVMDAWGQGTLVTVSS
VL: DIQMTQSPSSLSASVGDRVTITCRTSEDIFRNLAWYQQKPGKAPQLLIYDTNRLADGVPSRFSGSGSGTDYTLTISSLQPEDFATYYCQQYDNYPLTFGQGTKLEIK
notes: Human IgG1 kappa constant regions of pKANTEX93; transiently made in FUT8 double-knockout CHO-K1 cells
Regarding B1, the “affinity as percent of the affinity of ChRA15-7Acc” value in experiment [1] was about 70%.

B2: C101P (antibody, V domains shown)
VH: EVQLVESGGGLVQPGGSLRLSCAASGFTFTDFYMNWVRQPPGKAPEWLGFIRNKANGYTTEFNPSVKGRFTISRDNSKNSLYLQMNSLKTEDTATYYCARPLYGYAYYYVMDAWGQGTLVTVSS
VL: DIQMTQSPSSLSASLGDRVTITCRTSEDIFRNLAWYQQKPGKAPKLLIYDTNRLADGVPSRFSGSGSGTDYTLTISSLQPEDFATYFCQQYDNYPLTFGQGTKLEIK
notes: also called HV7LV3-CDRH3-Cys101 modified antibody C101P; antibody in which Cys101 was modified with Pro
Consider B2, for which the binding result in experiment [2] is given as “no binding”.

B3: modified humanized RA15-7 antibody HV10LV3 (antibody, human IgG1, V domains shown)
VH: EVQLVESGGGLVQPGGSMRLSCAASGFTFTDFYMNWIRQPAGKAPEWLGFIRNKANGYTTEFNPSVKGRFTISRDNSKNSLYLQMNSLKTEDTATYYCARCLYGYAYYYVMDAWGQGTLVTVSS
VL: DIQMTQSPSSLSASLGDRVTITCRTSEDIFRNLAWYQQKPGKAPKLLIYDTNRLADGVPSRFSGSGSGTDYTLTISSLQPEDFATYFCQQYDNYPLTFGQGTKLEIK
notes: as for B1
For the molecule B3, in experiment [1], the “affinity as percent of the affinity of ChRA15-7Acc” value was about 70%.

B4: modified humanized RA15-7 antibody HV10LV4 (antibody, human IgG1, V domains shown)
VH: EVQLVESGGGLVQPGGSMRLSCAASGFTFTDFYMNWIRQPAGKAPEWLGFIRNKANGYTTEFNPSVKGRFTISRDNSKNSLYLQMNSLKTEDTATYYCARCLYGYAYYYVMDAWGQGTLVTVSS
VL: DIQMTQSPSSLSASLGDRVTITCRTSEDIFRNLAWYQQKPGKAPQLLIYDTNRLADGVPSRFSGSGSGTDYTLTISSLQPEDFATYFCQQYDNYPLTFGQGTKLEIK
notes: as for B1
B4: in experiment [1], the “affinity as percent of the affinity of ChRA15-7Acc” value was about 70%.

B5: HV7LV3-CDRH3-Cys101 modified antibody C101Q (antibody, human IgG1, V domains shown)
VH: EVQLVESGGGLVQPGGSLRLSCAASGFTFTDFYMNWVRQPPGKAPEWLGFIRNKANGYTTEFNPSVKGRFTISRDNSKNSLYLQMNSLKTEDTATYYCARQLYGYAYYYVMDAWGQGTLVTVSS
VL: DIQMTQSPSSLSASLGDRVTITCRTSEDIFRNLAWYQQKPGKAPKLLIYDTNRLADGVPSRFSGSGSGTDYTLTISSLQPEDFATYFCQQYDNYPLTFGQGTKLEIK
notes: Human IgG1 kappa constant regions of pKANTEX93; transiently made in FUT8 double-knockout CHO-K1 cells; also called antibody in which Cys101 was modified with Gln
Regarding B5, the “affinity as percent of the affinity of ChRA15-7Acc antibody” value in experiment [3] was ≥ 50 % of the affinity of ChRA15-7Acc antibody; in experiment [1], 64%.

B6: HV7LV3-CDRH3-Cys101 modified antibody C101M (antibody, human IgG1, V domains shown)
VH: EVQLVESGGGLVQPGGSLRLSCAASGFTFTDFYMNWVRQPPGKAPEWLGFIRNKANGYTTEFNPSVKGRFTISRDNSKNSLYLQMNSLKTEDTATYYCARMLYGYAYYYVMDAWGQGTLVTVSS
VL: DIQMTQSPSSLSASLGDRVTITCRTSEDIFRNLAWYQQKPGKAPKLLIYDTNRLADGVPSRFSGSGSGTDYTLTISSLQPEDFATYFCQQYDNYPLTFGQGTKLEIK
notes: Human IgG1 kappa constant regions of pKANTEX93; transiently made in FUT8 double-knockout CHO-K1 cells; also called antibody in which Cys101 was modified with Met
For the molecule B6, the “affinity as percent of the affinity of ChRA15-7Acc antibody” value in experiment [3] was ≥ 50 % of the affinity of ChRA15-7Acc antibody; in experiment [1], 59%.

B7: ChRA15-7DF antibody (antibody, human IgG1, V domains shown)
VH: EVKLLESGGGLVQPGGSMRLSCAASGFTFTDFYMNWIRQPAGKAPEWLGFIRNKANGYTTEFNPSVKGRFAISRDNTQNMLYLQMNTLRAEDTATYYCARCLYGYAYYYVMDAWGQGTSVTVSS
VL: DIQMTQSPASLSASLGETVTIECRTSEDIFRNLAWYQQRPGNSPQLLIYDTNRLADGVPSRFSGSGSGTQYSLKINSLQSEDVAGYFCQQYDNYPLTFGSGTKLEIK
notes: sugar chain without fucose, made in CHO/Ms704 cells; also called defucosylated rat/human chimeric RA15-7
As to B7, the binding result in experiment [4] was “binds”.

B8: MORAb-003 antibody (antibody, V domains shown)
VH: EVQLVESGGGVVQPGRSLRLSCSASGFTFSGYGLSWVRQAPGKGLEWVAMISSGGSYTYYADSVKGRFAISRDNAKNTLFLQMDSLRPEDTGVYFCARHGDDPAWFAYWGQGTPVTVSS
VL: DIQLTQSPSSLSASVGDRVTITCSVSSSISSNNLHWYQQKPGKAPKPWIYGTSNLASGVPSRFSGSGSGTDYTFTISSLQPEDIATYYCQQWSSYPYMYTFGQGTKVEIKR
As for B8, in experiment [5], the Kd turned out to be 57 nM and the koff came to 0.0259 s⁻¹.
